Measured values: paper PMC2701924, “Molecular cloning and expression of a novel trehalose synthase gene from Enterobacter hormaechei” (Microbial Cell Factories, 2009)

Substrate: OC[C@H]1O[C@H](O[C@H]2O[C@H](CO)[C@@H](O)[C@H](O)[C@H]2O)[C@H](O)[C@@H](O)[C@@H]1O
Assay: initial rates, ion chromatography of products, Lineweaver-Burk
Assay type: biochemical, Enterobacter hormaechei
Settings: substrate 1-200 mM, pH and temperature not stated for kinetics (standard assay 50 mM phosphate pH 6, 37°C), reverse reaction

B1: recombinant TreS (Enterobacter hormaechei trehalose synthase) (Enterobacter hormaechei) (protein)
chain: MAGWHTRAIIYQIDTALFYDLNGDGCGDIAGITAKLRYIRRMGATVIWITPFYLTPFLDEGYDVSDHLQVDPRFGKLNDIIAFIEQARELGMQVIIELLIQHTSDAHPWFQQARRNPQSPYRDYYLWSDTDDDDTPPMFPGVEKSIWTWDDEAGQYYRHMFYHHEPDLNLASPAVLKEVENIIIFWLKLGVSGFRLDAASHLTKQAGRGDEKRGLWILEHLRCLIGQRNPDAILLGEVDVEVEAYKDYFGQNDRLNLVLNFWLNKYFYVSLAEKSARPLRNAVKKMIVPPDSCCFANWLRNHDELDLEGIGKKAKQTVIDTFAPDEEMSVYQRGIRRRLAPMLNGDRKRLAFCHAVLFSLPGVPVMRYGDEIGMGDDLDLEERYAVRTPMQWAGSQGGGFSDADPETFVAPMIDHGPYRYQKINVADSLLHRNSLLHCIIDIANTRSEFPEIGVAPFRLINIDSDAVLGIYYETDTRSILTFVNFSDKPVNFTARGIRHATWTACLADKRYDDALVCGKTVALNLSGYGYRWFWTDRTALR
notes: pET30a(+) Nco I/Not I; 46 additional N-terminal residues incl; 6-His tag kept; about 65 kDa on SDS-PAGE; expressed in E. coli BL21(DE3) plysS, Ni-NTA
- Km: 75 mM
